Experimental data taken from patent US20230212554A1 (published 2023).
Where a chain is given by its changes, count along the chain named.

How the values were obtained:
[1] = target: T1, NP of A/California/07/2009(H1N1/H1S) (influenza A virus, NYMC X-181 derived …); experiment: sandwich ELISA, capture IgG; NP of lysed virus titrated; HRP-NP16 detection
[2] = target: T1, NP of A/California/07/2009(H1N1/H1S); experiment: ELISA on virus-infected fixed MDCK cells
[3] = target: T1, NP of A/California/07/2009(H1N1/H1S); experiment: sandwich ELISA, capture IgG; NP of lysed virus titrated; HRP-NP17 detection

T1 sequence (P03466 whole entry): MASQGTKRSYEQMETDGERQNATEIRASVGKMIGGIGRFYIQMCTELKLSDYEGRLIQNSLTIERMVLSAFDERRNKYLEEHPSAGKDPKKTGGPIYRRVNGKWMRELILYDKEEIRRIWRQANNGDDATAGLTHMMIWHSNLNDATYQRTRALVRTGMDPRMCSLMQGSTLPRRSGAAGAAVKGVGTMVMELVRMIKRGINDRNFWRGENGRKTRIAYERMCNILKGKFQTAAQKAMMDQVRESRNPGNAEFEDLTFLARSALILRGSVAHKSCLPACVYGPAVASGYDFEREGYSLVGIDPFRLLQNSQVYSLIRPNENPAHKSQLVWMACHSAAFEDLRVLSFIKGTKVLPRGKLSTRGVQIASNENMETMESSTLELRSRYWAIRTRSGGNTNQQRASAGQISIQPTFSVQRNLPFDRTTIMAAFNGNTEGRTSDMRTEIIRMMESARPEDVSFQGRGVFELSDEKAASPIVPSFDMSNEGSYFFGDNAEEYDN

B1: NP21 (antibody, V domains shown)
VH: EVQLVESGGGLVQPGGSLRLSCAASGFTINGYGIHWVRQAPGKGLEWVAGIWPYGGSTFYADSVKGRFTISADTSKNTAYLQMNSLRAEDTAVYYCARFYNNHGGIMDYWGQGTLVTVSS
VL: DIQMTQSPSSLSASVGDRVTITCRASQDVYFYVAWYQQKPGKAPKLLIYGSRWLYSGVPSRFSGSGSGTDFTLTISSLQPEDFATYYCQQYSNFPVTFGQGTKVEIKR
EC50 [1]: 2.67 nM | EC50 [2]: 0.73 nM | EC50 [3]: 0.815 nM

B2: NP3 (antibody, V domains shown)
VH: B1 VH with N30S, G31N, Y54F, S57F, F59S, Y100H, N101W, H103D, G104H, I106Y
VL: B1 VL with Y30G, F31W, G50S, S51T, R52T, W53G, S92Y, F94Y, V96I
EC50 [1]: 1.96 nM | EC50 [2]: 0.55 nM | EC50 [3]: 0.834 nM

B3: NP4 (antibody, V domains shown)
VH: EVQLVESGGGLVQPGGSLRLSCAASGFTISNSSIHWVRQAPGKGLEWVAGIGPSGGYTFYADSVKGRFTISADTSKNTAYLQMNSLRAEDTAVYYCARFHSHNSYYSYSHYGYMDYWGQGTLVTVSS
VL: B1 VL with Y30G, F31W, Y32G, Y49S, S51P, R52S, W53S, S92F, F94Y, V96I
EC50 [1]: 2.11 nM | EC50 [2]: 4.02 nM | EC50 [3]: 0.862 nM

B4: NP5 (antibody, V domains shown)
VH: EVQLVESGGGLVQPGGSLRLSCAASGFTISNGSIHWVRQAPGKGLEWVAGIWPSGGSTSYADSVKGRFTISADTINNSAYLQMNSLRAEDTAVYYCARWNYWGQGTLVTVSS
VL: B1 VL with Y30G, F31W, Y32S, Y91G, S92Y, F94G, V96L
EC50 [1]: 3.32 nM | EC50 [3]: 0.918 nM

B5: NP6 (antibody, V domains shown)
VH: EVQLVESGGGLVQPGGSLRLSCAASGFTINDGSIHWVRQAPGKGLEWVAGIGPFGGFTYYADSVKGRFTISADTSKNTAYLQMNSLRAEDTAVYYCARSGYSGSFDYWGQGTLVTVSS
VL: B1 VL with Y32G, S51T, R52S, W53Y, Y91F, F94W, V96I
EC50 [1]: 3.12 nM | EC50 [2]: 6.46 nM | EC50 [3]: 3.07 nM

B6: NP7 (antibody, V domains shown)
VH: EVQLVESGGGLVQPGGSLRLSCAASGFTISNGGIHWVRQAPGKGLEWVAGIGPYGGFTSYADSVKGRFTISADTSKNTAYLQMNSLRAEDTAVYYCARFYSNYYGYHGVMDYWGQGTLVTVSS
VL: B1 VL with Y30F, F31G, Y32W, Y49S, G50Y, R52A, W53S, S92F, F94Y, V96L
EC50 [1]: 2.36 nM | EC50 [3]: 0.9 nM

B7: NP8 (antibody, V domains shown)
VH: EVQLVESGGGLVQPGGSLRLSCAASGFTINSFGIHWVRQAPGKGLEWVAGIGPFGGSTFYADSVKGRFTISADTSKNTAYLQMNSLRAEDTAVYYCARGFYWFDYWGQGTLVTVSS
VL: B1 VL with Y30D, F31D, Y32S, G50W, S51T, W53Y, Y91G, S92Y, F94Y, V96L
EC50 [1]: 2.33 nM | EC50 [3]: 0.752 nM

B8: NP9 (antibody, V domains shown)
VH: EVQLVESGGGLVQPGGSLRLSCAASGFTINNGWIHWVRQAPGKGLEWVAGIGPYWGFTSYADSVKGRFMISADTSKNTAYLQMNSLRAEDTAVYYCARFDSDHDHHYSYYYYYDNGYMDYWGQGTLVTVSS
VL: B1 VL with Y30W, Y32S, S51T, R52T, W53S, S92F, F94Y, V96L
EC50 [1]: 53.9 nM | EC50 [2]: 2.14 nM

B9: NP10 (antibody, V domains shown)
VH: EVQLVESGGGLVQPGGSLRLSCAASGFTIDNGSIHWVRQAPGKGLEWVAWIWPFGGSTSYADSVKGRFTISADTSKNTAYLQMNSLRAEDTAVYYCARSWSSGYDYWGQGTLVTVSS
VL: B1 VL with Y30S, F31W, Y32S, Y49S, R52T, F94S, V96I
EC50 [1]: 3.3 nM | EC50 [3]: 0.798 nM

B10: NP13 (antibody, V domains shown)
VH: EVQLVESGGGLVQPGGSLRLSCAASGFTINNYGIHWVRQAPGKGLEWVASIGPYGGSTYYADSVKGRFTISADTSKNTAYLQMNSLRAEDTAVYYCARFGYFNWLDMDYWGQGTLVTVSS
VL: DIQMTQSPSSLSASVGDRVTITCRASQDVGYWVAWYQQKPGKAPKLLISSASGLYSGVPSRFSGSGSGTDFTLTISSLQPEDFATYYCQQGWDWPITFGQGTKVEIKR
EC50 [1]: 168 nM | EC50 [2]: 1.68 nM | EC50 [3]: 47.9 nM

B11: NP15 (antibody, V domains shown)
VH: EVQLVESGGGLVQPGGSLRLSCAASGFTISNWYIHWVRQAPGKGLEWVAGIGPYGGSTYYADSVKGRFTISADTSKNTAYLQMNSLRAEDTAVYYCARFHWDHLHGMDYWGQGTLVTVSS
VL: B10 VL with G30D, Y31N, W32N, S50Y, A51S, S52T, G91Y, D93N, W94Y
EC50 [1]: 2.79 nM | EC50 [2]: 0.249 nM | EC50 [3]: 0.806 nM

B12: NP16 (antibody, V domains shown)
VH: EVQLVESGGGLVQPGGSLRLSCAASGFTIGNSGIHWVRQAPGKGLEWVAWIGPYWGFTSYADSVKGRFTISADTSKNTAYLQMNSLRAEDTAVYYCARFGNHWHLFMDYWGQGTLVTVSS
VL: B10 VL with Y31S, W32Y, S50W, A51T, S52T, G91Y, W92F, D93S, W94Y, I96V
EC50 [1]: 4.41 nM | EC50 [2]: 0.239 nM | EC50 [3]: 0.919 nM

B13: NP17 (antibody, V domains shown)
VH: B1 VH with N30S, Y32G, G33S, G50S, Y54F, Y100G, N101H, N102G, G104N, G105V
VL: B10 VL with W32S, A51P, S52G, G91Y, W92Y, W94Y, I96V
EC50 [1]: 3.28 nM | EC50 [2]: 28.7 nM | EC50 [3]: 1.02 nM

B14: NP19 (antibody, V domains shown)
VH: EVQLVESGGGLVQPGGSLRLSCAASGFTISSWGIHWVRQAPGKGLEWVAGIGPFWGYTSYADSVKGRFTISADTSKNTAYLQMNSLRAEDTAVYYCARFGVDNYGYMDYWGQGTLVTVSS
VL: B1 VL with Y30S, F31G, Y32W, Y49S, G50W, R52T, W53G, S92F
EC50 [1]: 5.37 nM | EC50 [2]: 0.304 nM | EC50 [3]: 0.863 nM

B15: NP12 (antibody, V domains shown)
VH: EVQLVESGGGLVQPGGSLRLSCAASGFTIDNGYIHWVRQAPGKGLEWVASIWPSWGSTYYADSVKGRFTISADTSKNTAYLQMNSLRAEDTAVYYCARGFYYYGDYWGQGTLVTVSS
VL: B10 VL with Y31G, W32N, A51T, S52A, G91Y, W92Y, W94F, I96L
EC50 [2]: 6.09 nM

B16: NP14 (antibody, V domains shown)
VH: EVQLVESGGGLVQPGGSLRLSCAASGFTIDNGGIHWVRQAPGKGLEWVASIWPSWGSTSYADSVKGRFTISADTSKNTAYLQMNSLRAEDTAVYYCARFNFGVFGVMDYWGQGTLVTVSS
VL: B1 VL with Y30D, F31N, Y32D, S51P, W53G, N93S, F94W, V96L
EC50 [2]: 3.43 nM

B17: NP18 (antibody, V domains shown)
VH: B16 VH with D30S, N31G, N100H, F101N, V103G, G105L
VL: B1 VL with P8S, Y30G, F31Y, S51P, W53F, F94W, V96I
EC50 [2]: 0.168 nM
